Measurements as given in patent US20250043019A1 (Janssen / Centocor, published 2025).

T1: human CD20 on the cell surface (human, UniProt P11836 1-297)
T1 sequence (looked up): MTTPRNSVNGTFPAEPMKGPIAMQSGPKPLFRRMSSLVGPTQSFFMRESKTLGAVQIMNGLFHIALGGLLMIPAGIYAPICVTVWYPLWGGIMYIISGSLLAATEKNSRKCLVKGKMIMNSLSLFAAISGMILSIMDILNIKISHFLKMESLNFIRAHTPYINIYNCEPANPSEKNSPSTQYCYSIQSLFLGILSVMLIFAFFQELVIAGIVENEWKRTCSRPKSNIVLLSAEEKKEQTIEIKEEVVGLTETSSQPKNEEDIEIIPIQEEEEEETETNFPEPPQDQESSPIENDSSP

T2: human CD79b on the cell surface (human, UniProt P40259 29-229)
T2 sequence: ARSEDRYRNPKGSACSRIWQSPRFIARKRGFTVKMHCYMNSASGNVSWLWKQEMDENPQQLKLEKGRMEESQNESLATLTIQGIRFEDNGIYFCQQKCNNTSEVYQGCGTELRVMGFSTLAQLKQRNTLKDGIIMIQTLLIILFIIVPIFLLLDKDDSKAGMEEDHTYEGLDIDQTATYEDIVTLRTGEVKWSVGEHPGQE

T3: recombinant extracellular domain of human CD79b, short isoform (human, UniProt P40259 29-159)
T3 chain: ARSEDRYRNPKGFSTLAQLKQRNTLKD

T4: recombinant extracellular domain of human CD79b, long isoform (human, UniProt P40259 29-159)
T4 construct: also called hu CD79b long
T4 sequence: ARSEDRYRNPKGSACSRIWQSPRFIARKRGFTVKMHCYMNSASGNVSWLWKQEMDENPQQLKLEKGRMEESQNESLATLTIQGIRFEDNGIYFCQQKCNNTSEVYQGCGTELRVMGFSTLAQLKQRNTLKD


Columns and labels:
[1] = biological target: T1, human CD20 on the cell surface; experiment: cell-based or functional assay
[2] = biological target: T2, human CD79b on the cell surface; experiment: cell-based or functional assay
[3] = biological target: T2, human CD79b on the cell surface; experiment: cell-based or functional assay; remark: listed apart in the source
[4] = biological target: T5, cynomolgus monkey CD79b antigen (cynomolgus monkey); experiment: SPR Biacore 8k, cyno CD79b injected up to 3000 nM
T5 construct: also called cyno CD79b; CD9W1.001
Experimental: (§1) General Protocol for SPR Affinity Assessment: Affinity assessment of the bispecific trispecific constructs against human CD79b were measure using recombinantly expressed extracellular domain of CD79b short and long isoforms (CD9W7.001 and CD9W8.001, respectively) by Surface Plasmon Resonance (SPR) using a Biacore 8k SPR system (Biacore) at 25° C. in HBSP+ buffer. Cross-reactivity of the same antibody panel was also assessed against cyno and mouse antigens (CD9W1.001 and CD9W105.001, respectively). Briefly, a C1 sensor chip was immobilized with anti-human Fc (target immobilization levels of >400 RU) using vendor recommended amino coupling protocol. […] The association and dissociation phases were measured for 2 or 3 minutes and 30 minutes, respectively.
(§2) The raw binding sensorgrams were processed using Biacore Insight software (Biacore) by double-referencing and the processed sensorgrams were analyzed for cross-reactivity and fitted to a 1:1 Langmuir model to obtain on-rates, off-rates and affinities.

[5] = biological target: T2, human CD79b on the cell surface; experiment: cell-based or functional assay; remark: listed apart in the source
[6] = biological target: T2, human CD79b on the cell surface; experiment: cell-based or functional assay; remark: listed apart in the source
[7] = biological target: T2, human CD79b on the cell surface; experiment: flow cytometry, HBL-1 cells, 1 h 37 C; control row of Table 10, same value as Table 8
Experimental: (§3) All cells were washed with BD stain buffer (BD Biosciences; Cat #554657), centrifuged at 1200 RPM for 3 minutes, with supernatant discarded. Cells were then stained for 20 minutes at 4° C. with BD stain buffer containing AlexaFluor 647 labeled anti-human IgG secondary antibody (Jackson Immuno; Cat #109-606-098) at a 1:200 dilution along with Aqua Fixable Live/Dead stain (Invitrogen; Cat #L34957) at a 1:400 dilution. All cells were washed with BD stain buffer (BD Biosciences; Cat #554657), centrifuged at 1200 RPM for 3 mins, with supernatant discarded. Cells were analyzed using Intellicyt (Sartorius) flow cytometer and mean fluorescent intensity (MFI) was generated using Forcyt software (Sartorius). MFI was graphed and EC50 values generated using GraphPad PRISM v.8. Dose response curves were generated by transforming the x axis values using the formula […]. Data was then graphed using non-linear regression curve fit analysis “log(agonist) vs. response-variable slope (four parameter)”.

[8] = biological target: T2, human CD79b on the cell surface; experiment: flow cytometry, Carnaval cells, 1 h 37 C
Experimental: as §3

[9] = biological target: T2, human CD79b on the cell surface; experiment: cell-based or functional assay; remark: listed apart in the source
[10] = biological target: T2, human CD79b on the cell surface; experiment: flow cytometry, Carnaval cells, 1 h 37 C; control row of Table 10, same value as Table 8
Experimental: as §3

[11] = biological target: T2, human CD79b on the cell surface; experiment: cell-based or functional assay; remark: listed apart in the source
[12] = biological target: T2, human CD79b on the cell surface; experiment: flow cytometry, HBL-1 cells, 1 h 37 C
Experimental: as §3

[13] = biological target: T3, recombinant extracellular domain of …; experiment: SPR Biacore 8k, antibody captured by anti-Fc, 25 C
Experimental: as §1, §2

[14] = biological target: T4, recombinant extracellular domain of …; experiment: SPR Biacore 8k, antibody captured by anti-Fc, 25 C
Experimental: as §1, §2

| Binder | EC50, long-term Incucyte cytotoxicity, K562 CD20 [1] | EC50, long-term Incucyte cytotoxicity, K562 CD79b [2] | EC50, decrease of IL-10 secretion by CD79b mutant OCI-Ly10 cells (MSD assay) [3] | Kd [4] | IC50, T-cell killing of OCI-Ly10 (Incucyte) [5] | IC50, CARNAVAL killing, 72 h (FACS) [6] | IC50, HBL-1 killing, 72 h (FACS) [6] | IC50, OCI-LY10 killing, 72 h (FACS) [6] | EC50 [7] | EC50 [8] | IC50, T-cell killing of HBL-1 (Incucyte) [9] | EC50 [10] | Cmax (maximum cytotoxicity), donor 1 [11] | Cmax (maximum cytotoxicity), donor 2 [11] | Cmax (maximum cytotoxicity), donor 3 [11] | EC50, autologous B-cell depletion, donor 3 [11] | EC50 [12] | Kd [13] | Kd [14] |
| --- | --- | --- | --- | --- | --- | --- | --- | --- | --- | --- | --- | --- | --- | --- | --- | --- | --- | --- | --- |
| C923B169 CD79bxCD20xCD3 trispecific antibody (CD9B374 Fab x C20B648 LH scFv x CD3B2030 N106A LH scFv) (other) heavy: QVQLQESGPGLVKPSETLSLTCSVSGASISSFYWSWIRQPADEGLEWIGRISPSGKTNYIPSLKSRIIMSLDASKNQFSLRLNSVTAADTAMYYCARGEYSGTYSYSFDVWGQGTMVTVSSASTKGPSVFPLAPSSKSTSGGTAALGCLVKDYFPEPVTVSWNSGALTSGVHTFPAVLQSSGLYSLSSVVTVPSSSLGTQTYICNVNHKPSNTKVDKKVEPKSCDKTHTCPPCPAPEAAGGPSVFLFPPKPKDTLMISRTPEVTCVVVSVSHEDPEVKFNWYVDGVEVHNAKTKPREEQYNSTYRVVSVLTVLHQDWLNGKEYKCKVSNKALPAPIEKTISKAKGQPREPQVYTLPPSREEMTKNQVSLSCAVKGFYPSDIAVEWESNGQPENNYKTTPPVLDSDGSFFLVSKLTVDKSRWQQGNVFSCSVMHEALHNRFTQKSLSLSPGK light: DIVMTQSPLSLSVTPGEPASISCRSSESLLDSEDGNTYLDWFLQKPGQSPQLLIYTLSYRASGVPDRFSGSGSDTDFTLHISSLEAEDVGLYYCMQRMEFPLTFGQGTKVEIKRTVAAPSVFIFPPSDEQLKSGTASVVCLLNNFYPREAKVQWKVDNALQSGNSQESVTEQDSKDSTYSLSSTLTLSKADYEKHKVYACEVTHQGLSSPVTKSFNRGEC EIVLTQSPATLSASPGERVTLSCSASSSVSYMNWYQQKPGQAPRRWIYDSSKLASGVPARFSGSGSGRDYTLTISSLEPEDFAVYYCQQWSRNPPTFGGGTKVEIKGGSEGKSSGSGSESKSTGGSQVQLVQSGAEVKKPGSSVKVSCKASGYTFTRSTMHWVKQAPGQGLEWIGYINPSSAYTNYNQKFQGRVTLTADKSTSTAYMELSSLRSEDTAVYYCASPQVHYDYAGFPYWGQGTLVTVSSEPKSSDKTHTCPPCPAPEAAGGPSVFLFPPKPKDTLMISRTPEVTCVVVSVSHEDPEVKFNWYVDGVEVHNAKTKPREEQYNSTYRVVSVLTVLHQDWLNGKEYKCKVSNKALPAPIEKTISKAKGQPREPQVYTLPPSREEMTKNQVSLWCLVKGFYPSDIAVEWESNGQPENNYKTTPPVLDSDGSFFLYSKLTVDKSRWQQGNVFSCSVMHEALHNHYTQKSLSLSPGKGGGGSGGGGSGGGGSGGGGSEIVLTQSPATLSLSPGERATLSCRASLSVSSMHWYQQKPGQAPRLLIYATSNLASGIPARFSGSGSGTDFTLTISSLEPEDFAVYYCQQWIFNPPTFGGGTKVEIKGGSEGKSSGSGSESKSTGGSQVQLVQSGAEVKKPGSSVKVSCKASGYTFSSYNMHWVRQAPGQGLEWMGAIYPGAGDTSYAQKFQGRVTITADESTSTAYMELSSLRSEDTAVYYCARSNYYGSSGWYFDVWGKGTTVTVSS | 4.08 nM | 1.04 nM | 15.4 nM |  |  |  |  |  |  |  |  |  |  |  |  |  |  |  |  |
| 79C3B651 CD79bxCD3 bispecific antibody (bispecific antibody, human IgG1, kappa, L234A L235A, IgG1 bispecific; CD79b Fab arm plus CD3 scFv-Fc arm; also called 79C3B651 bsAb; CD9B643 x CD3B2030-N106A) heavy: QVQLQESGPGLVKPSQTLSLTCTVSGVSISNYYWSWIRQPPGKGLEWIGRISPSGRTNYNPSLKSRVTMSLDASKNQFSLKLSSVTAADTAVYYCARGEYSGTYSYSFDIWGQGTMVTVSSASTKGPSVFPLAPSSKSTSGGTAALGCLVKDYFPEPVTVSWNSGALTSGVHTFPAVLQSSGLYSLSSVVTVPSSSLGTQTYICNVNHKPSNTKVDKKVEPKSCDKTHTCPPCPAPEAAGGPSVFLFPPKPKDTLMISRTPEVTCVVVSVSHEDPEVKFNWYVDGVEVHNAKTKPREEQYNSTYRVVSVLTVLHQDWLNGKEYKCKVSNKALPAPIEKTISKAKGQPREPQVYTLPPSREEMTKNQVSLSCAVKGFYPSDIAVEWESNGQPENNYKTTPPVLDSDGSFFLVSKLTVDKSRWQQGNVFSCSVMHEALHNRFTQKSLSLSPGK light: DIQMTQSPSSLSASVGDRVTITCRSSQSLFDSDDGNTYLDWFQQKPGQSPKLLIQTLSYRASGVPSRFSGSGSGTDFTLTISSLQPEDFATYYCMQRMEFPLTFGGGTKVEIKRTVAAPSVFIFPPSDEQLKSGTASVVCLLNNFYPREAKVQWKVDNALQSGNSQESVTEQDSKDSTYSLSSTLTLSKADYEKHKVYACEVTHQGLSSPVTKSFNRGEC EIVLTQSPATLSASPGERVTLSCSASSSVSYMNWYQQKPGQAPRRWIYDSSKLASGVPARFSGSGSGRDYTLTISSLEPEDFAVYYCQQWSRNPPTFGGGTKVEIKGGSEGKSSGSGSESKSTGGSQVQLVQSGAEVKKPGSSVKVSCKASGYTFTRSTMHWVKQAPGQGLEWIGYINPSSAYTNYNQKFQGRVTLTADKSTSTAYMELSSLRSEDTAVYYCASPQVHYDYAGFPYWGQGTLVTVSSEPKSSDKTHTCPPCPAPEAAGGPSVFLFPPKPKDTLMISRTPEVTCVVVSVSHEDPEVKFNWYVDGVEVHNAKTKPREEQYNSTYRVVSVLTVLHQDWLNGKEYKCKVSNKALPAPIEKTISKAKGQPREPQVYTLPPSREEMTKNQVSLWCLVKGFYPSDIAVEWESNGQPENNYKTTPPVLDSDGSFFLYSKLTVDKSRWQQGNVFSCSVMHEALHNHYTQKSLSLSPGK |  |  |  | > 3000 nM | 4.7 nM | 0.25 nM | 2.2 nM | > 100 nM | 15 nM | 12 nM | 0.0325 nM | 12 nM | 5% | 13% | 34% | 17 nM | 15 nM | 0.35 nM | 0.052 nM |
